We go through four molecules from publication PMC9098913, “In vitro reconstitution of Escherichia coli divisome activation” (Nature Communications, 2022).

Changes are numbered by the printed parent chain. Read-outs that look alike come from different tables or passages of the source.

The labels stand for the following.
T1: FtsA R286W (1-405)-6xHis (E. coli, UniProt P0ABH0 1-405, R286W, Cy3 or Cy5 at the N-terminus in the labelled form (sortagging as for native FtsA))
T1 construct: FtsA, E. coli, residues 1-405 with R286W; the C-terminal amphipathic helix replaced by a 6xHistidine tag; plasmid pNB5; Attached to membranes through Tris-NTA lipids by its His tag; also called FtsA R286W-His6; R286W-His6; source: E. coli BL21, purified (as native FtsA); not shown: TwinStrep-SUMO, N-terminal, cleaved; 5xGlycine tag, N-terminal, kept; His6, C-terminal, kept
T1 sequence (looked up): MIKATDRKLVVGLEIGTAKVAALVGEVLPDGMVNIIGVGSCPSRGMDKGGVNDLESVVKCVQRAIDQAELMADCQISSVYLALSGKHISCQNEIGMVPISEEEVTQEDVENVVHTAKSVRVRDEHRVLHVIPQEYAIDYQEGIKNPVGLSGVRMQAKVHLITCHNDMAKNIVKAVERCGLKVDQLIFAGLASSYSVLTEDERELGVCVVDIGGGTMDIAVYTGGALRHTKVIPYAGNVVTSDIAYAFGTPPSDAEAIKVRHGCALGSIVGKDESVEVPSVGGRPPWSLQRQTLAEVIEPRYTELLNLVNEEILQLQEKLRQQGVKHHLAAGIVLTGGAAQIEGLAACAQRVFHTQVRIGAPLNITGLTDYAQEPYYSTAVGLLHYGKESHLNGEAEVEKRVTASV

T2: FtsA WT (E. coli, UniProt P0ABH0 1-420, Cy3 or Cy5 at the N-terminus in the labelled form (CLEPTGG peptide labelled with sulfo-Cyanine 3- or 5-maleimide, conjugated to the 5xGly tag by sortagging; degree of labelling 65-70%); unlabelled …)
T2 construct: FtsA, E. coli, cloned into vector pMAR19; called full-length in the results; also called wild-type FtsA; Cy5-FtsA WT; source: E. coli BL21, purified (Strep-Tactin, SUMO tag cleaved with Ulp1, SEC); not shown: TwinStrep-SUMO, N-terminal, cleaved; 5xGlycine tag, N-terminal, kept
T2 sequence (looked up): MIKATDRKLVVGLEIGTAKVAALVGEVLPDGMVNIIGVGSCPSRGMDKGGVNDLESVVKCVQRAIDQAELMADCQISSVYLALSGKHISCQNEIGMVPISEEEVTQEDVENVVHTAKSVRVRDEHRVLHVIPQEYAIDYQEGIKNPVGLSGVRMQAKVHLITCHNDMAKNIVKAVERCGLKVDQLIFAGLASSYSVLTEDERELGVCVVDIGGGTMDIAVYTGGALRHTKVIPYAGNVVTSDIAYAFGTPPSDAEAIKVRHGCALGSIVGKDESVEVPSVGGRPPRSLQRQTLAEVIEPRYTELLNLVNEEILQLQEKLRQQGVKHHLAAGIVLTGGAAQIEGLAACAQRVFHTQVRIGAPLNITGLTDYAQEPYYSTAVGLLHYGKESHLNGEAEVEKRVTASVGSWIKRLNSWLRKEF

T3: FtsA R286W (E. coli, UniProt P0ABH0 1-420, R286W, Cy3 or Cy5 at the N-terminus in the labelled form (labelled CLEPTGG peptide conjugated to the 5xGly tag by sortagging); unlabelled protein also used)
T3 construct: also called Cy5-FtsA R286W; hyperactive mutant; source: E. coli BL21, purified (as the wild type: Strep-Tactin, SUMO tag cleaved with Ulp1, SEC); not shown: TwinStrep-SUMO, N-terminal, cleaved; 5xGlycine tag, N-terminal, kept
T3 sequence (looked up): T2 sequence (looked up) with R286W

B1: FtsA WT (1-405)-6xHis (domain or fragment, E. coli, UniProt P0ABH0 1-405, looked up)
chain: T1 sequence (looked up) with W286R
modifications: Cy3 or Cy5 at the N-terminus in the labelled form (sortagging as for native FtsA)
notes: FtsA, E. coli, residues 1-405; plasmid pNB4; Attached to membranes through Tris-NTA lipids by its His tag; also called FtsA-His6; FtsA WT-His6; source: E. coli BL21, purified (as native FtsA); not shown: TwinStrep-SUMO, N-terminal, cleaved; 5xGlycine tag, N-terminal, kept; His6, C-terminal, kept
B2: FtsZ (natural protein, E. coli, UniProt P0A9A6 1-383, looked up)
chain: MFEPMELTNDAVIKVIGVGGGGGNAVEHMVRERIEGVEFFAVNTDAQALRKTAVGQTIQIGSGITKGLGAGANPEVGRNAADEDRDALRAALEGADMVFIAAGMGGGTGTGAAPVVAEVAKDLGILTVAVVTKPFNFEGKKRMAFAEQGITELSKHVDSLITIPNDKLLKVLGRGISLLDAFGAANDVLKGAVQGIAELITRPGLMNVDFADVRTVMSEMGYAMMGSGVASGEDRAEEAAEMAISSPLLEDIDLSGARGVLVNITAGFDLRLDEFETVGNTIRAFASDNATVVIGTSLDPDMNDELRVTVVATGIGMDKRPEITLVTNKQVQQPVMDRYQQHGMAPLTQEQKPVAKVVNDNAPQTAKEPDYLDIPAFLRKQAD
modifications: Alexa Fluor 488 C5 maleimide on the cysteine of the added N-terminal residues AEGCGEL in the labelled form; unlabelled FtsZ also used
notes: FtsZ, E. coli, cloned into a pTB146-derived vector; Present as GTP-dependent treadmilling filaments in the assays; also called Alexa488-FtsZ; FtsZ filaments; source: E. coli BL21, purified (Ni-NTA, His6-SUMO cleaved with Ulp1, polymerisation with CaCl2 and GTP); not shown: His6-SUMO, N-terminal, cleaved; seven residues AEGCGEL for maleimide coupling, N-terminal, kept
B3: FtsZ: E. coli tubulin-like FtsZ forming treadmilling filaments; labelled with Alexa Fluor 488 (protein)
chain: B2 chain
modifications: Alexa Fluor 488 C5 maleimide on the cysteine of the added N-terminal residues AEGCGEL in the labelled form; unlabelled FtsZ also used; left off: His6-SUMO, N-terminal, cleaved | seven residues AEGCGEL

The test system of one series is FtsA self-interaction. Briefly: FRET (acceptor photobleaching) self-interaction of FtsA on supported lipid bilayers. Format: binding, E. coli. An excerpt:
To directly measure FtsA self-interaction in our fluorescence microscopy experiments, we established a FRET (Förster resonance energy transfer)-based assay using FtsA labelled with either Cy5 (acceptor) or Cy3 (donor). […] We then decided to use this approach to measure the degree of FtsA self-interaction on supported lipid membranes by quantifying the increase in donor fluorescence after photobleaching the acceptor fluorophore[30]–[32] (Fig. 3c–e and Fig. S3d). […] As a negative control, we also attached the Hexahistidine-SUMO-tag (His-SUMO) labelled with Cy5 and Cy3 to membranes with an increasing density of Tris-NTA lipids.
Equimolar concentrations of Cy3- and Cy5-labelled FtsA, supplemented with 20% unlabelled FtsA were used to study FRET and FRAP. Five pre-bleach frames were acquired, followed by acceptor photobleaching of a rectangular ROI with 40% 641 nm laser power and a dwell size of 1 µs/pixel, 75% overlapping lines. The recovery of the signal or the increase in donor intensity were measured with either two frames or one frame per second.
Bleaching the acceptor dye leads to an increase in the donor intensity, which can be used to quantify the Foerster Resonance energy transfer (FRET)[48]. FRET efficiency was quantified with E%=Ipost/Ipost+Ipre⋅100 , where Ipost is the intensity of the […] and Ipre is the […]. […] To extract the contribution of both processes, we adjusted a routine recently published by Gerganova et al.[33]. In short, the code provides the contribution of both modes of recovery by analysing the shape of the fluorescence recovery profile. […] Contribution of diffusion leads to a change of the slope of the outer borders of the bleached region (S4h right). Thus, by measuring the change of the slope of the border recovery, diffusion and simple on/off binding can be distinguished. We developed “FRAPdiff”, a graphical user interface, which uses the original fit routine by David Rutkowski. It can be used directly on.tiff movies with annotated bleach regions as ImageJ ROIs. In addition, we added optional bleach correction, user selectable projection axis (x or y), and optional mirroring of the recovery profiles, if bleaching was not symmetric. The original fit routine for estimating the recovery and diffusion dynamics can be found at https://github.com/davidmrutkowski/1DReflectingDiffusion. FRAPdiff is available at 10.5281/zenodo.6400639[49] under the GPLv3 open-source license.

Series [1] deals with the molecule itself. The experiment in a line: FRET or BRET; acceptor photobleaching; equimolar Cy3- and Cy5-labelled His-tagged protein (total 0.5-1 µM, washed) attached to bilayers with varied Tris-NTA lipid density. On the technique in general: Bioluminescence resonance energy transfer reports proximity on the nanometre scale.
The series “FtsA WT (1-405)-6xHis” concerns the target B1. Briefly: dual-colour TIRF microscopy on supported lipid bilayers; Cy5-labelled His-tagged FtsA (0.5-1 µM, washed) attached to bilayers with varied Tris-NTA lipid density; 1.25 µM Alexa488-FtsZ added. Particulars: both partners purified.
Another series addresses T1, FtsA R286W (1-405)-6xHis. The series is described as above. To be noted: both partners purified.
Another series addresses T2, FtsA WT. Briefly: dual-colour TIRF microscopy on supported lipid bilayers; Cy5-FtsA WT or R286W (0.1-0.8 µM) and Alexa488-FtsZ (1.25 µM) on DOPC:DOPG bilayers; reaction buffer with 4 mM ATP, 4 mM GTP. To be noted: both partners purified.
The next series deals with T3, FtsA R286W. Described as above. Particulars: both partners purified.
The next series deals with FtsA. Particulars: Fig. S2f, intensity after FtsNcyto addition. Here is the method: Subsequently, the chamber was washed 6x with reaction buffer, to remove bulk peptide. To visualize colocalization with either FtsZ or FtsA, either a mix of FtsA and Alexa488-FtsZ or Cy3-FtsA and FtsZ was added. […] The time-lapse videos were recorded for 10 min after the addition, with one frame per 2 s.
Time-lapse videos were first intensity-corrected and contrast-enhanced to avoid bleaching effects and simplify subsequent analysis. To remove contributions of X–Y drift, the videos were processed with the Linear Stack Alignment with SIFT plugin. Proper alignment was checked with the 3TP align plugin (J. A. Parker; Beth Israel Deaconess Medical Center, Boston). Subsequently, regions of interest (ROIs) in the center of the stacks were chosen for colocalization analysis. The Pearson’s correlation coefficient (PCC) was quantified with the Image CorrelationJ 1o plugin. To extract information about the relative ratio of FtsZ/FtsA molecules (slope of linear regression), we also used the Image CorrelationJ 1o plugin. As an output, the plugin provides a scatterplot of FtsZ vs FtsA intensities, to which we fitted a linear slope y=k⋅x+d , where k is the slope and d the offset. The slope was used as an estimate for the ratio of FtsA molecules below FtsZ filaments.

In another series the test system is FtsZ. To be noted: with FtsNcyto-His and His-tagged FtsA.

Regarding `Nc1ncnc2c1ncn2[C@@H]1O[C@H](CO[P@](=O)(O)O[P@](=O)(O)O[P@@](=O)(O)S)[C@@H](O)[C@H]1O` [ATPγS, reference compound], in the series on FtsA self-interaction, the “effect of replacing ATP with ATPγS on membrane-binding, self-interaction or membrane-binding dynamics” value is on record as “no significant effect”.

On to B1, for which the binding result in series [1] is given as “binds”.

Take B2: the binding result with FtsA WT (1-405)-6xHis, in the series with FtsA R286W (1-405)-6xHis, in the series with FtsA WT and in the series with FtsA R286W was “binds” in each case.

With B3, the “Mean Intensity Fold Change” value in the series with FtsA (0.10 µM) worked out at 1.36; in the series with FtsA (0.20 µM) it was 1.60; in the series with FtsA (0.40 µM), 1.56. Besides, the “mean recovery time of FtsZ” value in the series on FtsZ is “around 9.5 s”.
